We go through three molecules from patent publication US20120058906A1 (published 2012).

Residue numbers refer to the chain shown, from its start.

Assay [1] has as its target T1, rHuman ErbB2/Fc Chimera, CF (R&D Systems Cat#1129-ER) (human, UniProt P04626 23-652).
T1 construct: Bought Fc chimera; also called HER2/neu; not shown: Fc of the bought chimera
As to the kind of experiment: ECL (MSD multi-spot), antigen on plate, Fab 5 nM.

The target of assay [2] is T2, rHuman CD44/Fc Chimera, CF (R&D Systems Cat#3660-CD) (human, UniProt P16070 21-220).
T2 construct: Bought Fc chimera; not shown: Fc of the bought chimera
Nature of the assay: ECL (MSD multi-spot), antigen on plate, Fab 10 nM.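 Further: blank spot per well as comparator with Hit at signal to blank ratio of 4 or more.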

The target of assay [3] is T3, rHuman EGF R/Fc Chimera, CF (R&D Systems Cat#344-ER) (human, UniProt P00533 25-645).
T3 construct: Bought Fc chimera; also called ErbB-1; not shown: Fc of the bought chimera
As to the kind of experiment: ECL (MSD multi-spot), antigen on plate, Fab 10 nM.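 Further: blank spot per well as comparator with Hit at signal to blank ratio of 4 or more.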

The target of assay [4] is T4, rHuman HGF R/c-MET/Fc Chimera, CF (R&D Systems Cat#358-MT/CF) (human, UniProt P08581 25-932).
T4 construct: Bought Fc chimera; also called HGF R/Fc; not shown: Fc of the bought chimera
As to the kind of experiment: ECL (MSD multi-spot), antigen on plate, Fab 10 nM.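 Further: blank spot per well as comparator with Hit at signal to blank ratio of 4 or more.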

Assay [5] deals with T5, rHuman Erythropoietin R/Fc Chimera, CF (R&D Systems Cat#963-ER) (human, UniProt P19235 25-250).
T5 construct: Bought Fc chimera; also called EPO R/Fc; Epo R; not shown: Fc of the bought chimera
T5 sequence: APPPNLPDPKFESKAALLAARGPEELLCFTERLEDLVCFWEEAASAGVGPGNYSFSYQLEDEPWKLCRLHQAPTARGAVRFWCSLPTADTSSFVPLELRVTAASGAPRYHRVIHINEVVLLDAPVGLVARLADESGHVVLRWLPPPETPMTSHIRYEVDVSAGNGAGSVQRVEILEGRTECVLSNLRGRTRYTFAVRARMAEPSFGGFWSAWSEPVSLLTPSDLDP
As to the kind of experiment: ECL (MSD multi-spot), antigen on plate, Fab 10 nM.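 Further: blank spot per well as comparator with Hit at signal to blank ratio of 4 or more.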

The target in assay [6] is T6, rHuman IGF-1 sR (insulin-like growth factor-1 soluble receptor), CF (R&D Systems Cat#391-GR) (human, UniProt P08069 31-932).
T6 construct: Bought soluble receptor; also called IGF-R1
As to the kind of experiment: ECL (MSD multi-spot), antigen on plate, Fab 10 nM.

Assay [7] concerns the target T7, rHuman Notch-1/Fc Chimera, CF (R&D Systems Cat#3647-TK) (human, UniProt P46531 19-526).
T7 construct: Bought Fc chimera; not shown: Fc of the bought chimera
As to the kind of experiment: ECL (MSD multi-spot), antigen on plate, Fab 10 nM.

The target in assay [8] is T8, rHuman P-Cadherin/Fc Chimera, CF (R&D Systems Cat#861-PC) (human, UniProt P22223 108-654).
T8 construct: Bought Fc chimera; also called CDH3; not shown: Fc of the bought chimera
As to the kind of experiment: ECL (MSD multi-spot), antigen on plate, Fab 10 nM.

Assay [9] has as its target T9, Recombinant Human DLL4 (R&D Systems Cat#1506-D4/CF) (human, UniProt Q9NR61 27-524).
T9 construct: Bought recombinant protein; also called delta-like protein 4
Nature of the assay: ECL (MSD multi-spot), antigen on plate, Fab 10 nM.

Assay [10] has as its target T1, rHuman ErbB2/Fc Chimera, CF (R&D …). Nature of the assay: ECL (MSD multi-spot), antigen on plate, Fab 10 nM.
Assay [11] deals with T10, rHuman EGF R/Fc Chimera, CF (R&D Systems Cat#344-ER) (human, UniProt P00533 25-645).
T10 construct: Bought reagent; also called epidermal growth factor receptor; Fc part of the bought chimera not given
Nature of the assay: ECL (MSD multi-spot), antigen spotted on plate; Fab 11 nM; blank spot 212.

In assay [12] the target is T11, rHuman CD44/Fc Chimera, CF (R&D Systems Cat#3660-CD) (human, UniProt P16070 21-220).
T11 construct: Bought reagent; Fc part of the bought chimera not given
The assay is described as above.

Assay [13] deals with T12, rHuman Notch-1/Fc Chimera, CF (R&D Systems Cat#3647-TK) (human, UniProt P46531 19-526).
T12 construct: Bought reagent; Fc part of the bought chimera not given
The description is as above.

Assay [14] concerns the target T13, rHuman Erythropoietin R/Fc Chimera, CF (R&D Systems Cat#963-ER) (human, UniProt P19235 25-250).
T13 construct: Bought reagent; also called EPO R/Fc; Epo R; Fc part of the bought chimera not given
T13 sequence: T5 sequence
The assay is described as above.

For assay [15], the target named is T14, rHuman P-Cadherin/Fc Chimera, CF (R&D Systems Cat#861-PC) (human, UniProt P22223 108-654).
T14 construct: Bought reagent; also called CDH3; Fc part of the bought chimera not given
The description is as above.

The target of assay [16] is T15, rHuman IGF-1 sR (IGF-1 sR), CF (R&D Systems Cat#391-GR) (human, UniProt P08069 31-932).
T15 construct: Bought soluble receptor; also called insulin-like growth factor-1 soluble receptor; IGF-R1
The description is as above.

Assay [17] concerns the target T16, rHuman ErbB2/Fc Chimera, CF (R&D Systems Cat#1129-ER) (human, UniProt P04626 23-652).
T16 construct: Bought reagent; also called HER2/neu; human epidermal growth factor 2 receptor; Fc part of the bought chimera not given
Described as above.

The target of assay [18] is T17, rHuman HGF R/c-MET/Fc Chimera, CF (R&D Systems Cat#358-MT/CF) (human, UniProt P08581 25-932).
T17 construct: Bought reagent; also called HGF R/Fc; hepatocyte growth factor receptor; Fc part of the bought chimera not given
The assay is described as above.

Assay [19] deals with T18, Recombinant Human DLL4 (R&D Systems Cat#1506-D4/CF) (human, UniProt Q9NR61 27-524).
T18 construct: Bought reagent; also called delta-like protein 4
Described as above.

B1: Fab VH1-46_IGHD6-6*01_IGHJ1*01_S102A_S103P_S104Y_H111Y & L6_IGKJ1*01 (Fab, V domains shown)
VH: QVQLVQSGAEVKKPGASVKVSCKASGYTFTSYYMHWVRQAPGQGLEWMGIINPSGGSTSYAQKFQGRVTMTRDTSTSTVYMELSSLRSEDTAVYYCAREEYAPYSAEYFQYWGQGTLVTVSS
VL: not shown
notes: Fab made in E. coli; The heavy chain also carries CH1 with Flag and His tags from Plasmid A, and the light chain carries kappa CL from Plasmid C
In [1], B1 displayed an ECL signal of 2860 ECL signal.

B2: Fab VH1-46_IGHD6-6*01_IGHJ1*01_S102A_S103P_S104F & L6_IGKJ1*01_S30N (Fab, V domains shown)
VH: B1 VH with Y104F, Y111H
VL: EIVLTQSPATLSLSPGERATLSCRASQSVNSYLAWYQQKPGQAPRLLIYDASNRATGIPARFSGSGSGTDFTLTISSLEPEDFAVYYCQQRSNWPPWTFGQGTKVEIKR
notes: Fab
As to B2, the ECL signal in assay [2] turned out to be 286 ECL signal; in assay [3] it was 245 ECL signal; in assay [4], 239 ECL signal; in [5] it was 420 ECL signal; in [6], 233 ECL signal; in assay [7] it was 253 ECL signal. Moreover, the figures for the ECL signal in assay [8], in assay [9] and in [10] were 283 ECL signal, 33400 ECL signal and 274 ECL signal, respectively.

B3: Fab VH1-46_IGHD3-10*01_IGHJ4*01 & B3_IGKJ1*01 (Fab, V domains shown)
VH: QVQLVQSGAEVKKPGASVKVSCKASGYTFTSYYMHWVRQAPGQGLEWMGIINPSGGSTSYAQKFQGRVTMTRDTSTSTVYMELSSLRSEDTAVYYCAREYYYGSGSYYNDYFDYWGQGTLVTVSS
VL: not shown
notes: also called IGHV1-46*01
In the case of B3, the ECL signal was 201 in assay [11]; 296 in [12]; 404 in assay [13]; 1820 in assay [14]; 270 in assay [15]; 289 in [16]. For the same molecule, the ECL signal in assay [17] stood at 216; in assay [18] it was 268; in assay [19], 254.
